Patent US20220251206A1 (Bristol-Myers Squibb, published 2022)

Target: T1, CTLA4 (UniProt P16410 36-223, limits assumed)
T1 sequence (looked up): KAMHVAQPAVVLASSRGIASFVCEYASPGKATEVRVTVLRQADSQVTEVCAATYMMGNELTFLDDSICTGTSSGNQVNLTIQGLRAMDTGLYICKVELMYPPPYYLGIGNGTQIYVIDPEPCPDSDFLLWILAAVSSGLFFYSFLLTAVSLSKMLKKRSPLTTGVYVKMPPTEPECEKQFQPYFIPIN
Assay: cell-based or functional assay

Binder	IL-2 secretion by SEB-stimulated PBMC (HTRF)
de-prodrugged Antibody E1 (antibody, human IgG1, kappa, V domains shown, succinimide residue (or its ring-opened derivative) left on Cys 57 of SEQ ID NO:10 after cleavage of the linker) VH: QVQLVESGGGVVQPGRSLRLSCAASGFTFSSYTMHWVRQAPGKGLEWVTFISYDGNNKYYADSVKGRFTISRDNSKNTLYLQMNSLRAEDTAIYYCARTGWLGPFDYWGQGTLVTVSS VL: not shown	~3 fold
de-prodrugged Antibody C1 (antibody, human IgG1, kappa, V domains shown, succinimide residue (or its ring-opened derivative) left on Cys 31 of SEQ ID NO:10 after cleavage of the linker) VH: QVQLVESGGGVVQPGRSLRLSCAASGFTFSSYTMHWVRQAPGKGLEWVTFISYDGNNKYYADSVKGRFTISRDNSKNTLYLQMNSLRAEDTAIYYCARTGWLGPFDYWGQGTLVTVSS VL: not shown	~3 fold

Second part, the binder after the results:

IL-2 secretion by SEB-stimulated PBMC (HTRF)	Binder
~3 fold	de-prodrugged Antibody A1 (antibody, human IgG1, kappa, V domains shown, succinimide residue (or its ring-opened derivative) left on the substituted-in Cys of VH CDR2 after cleavage of the linker) VH: QVQLVESGGGVVQPGRSLRLSCAASGFTFSSYTMHWVRQAPGKGLEWVTFISYDGNCKYYADSVKGRFTISRDNSKNTLYLQMNSLRAEDTAIYYCARTGWLGPFDYWGQGTLVTVSS VL: not shown
~3 fold	de-prodrugged Antibody B1 (antibody, human IgG1, kappa, V domains shown, succinimide residue (or its ring-opened derivative) left on Cys 28 of SEQ ID NO:10 after cleavage of the linker) VH: QVQLVESGGGVVQPGRSLRLSCAASGFTFSSYTMHWVRQAPGKGLEWVTFISYDGNNKYYADSVKGRFTISRDNSKNTLYLQMNSLRAEDTAIYYCARTGWLGPFDYWGQGTLVTVSS VL: not shown
~3 fold	de-prodrugged Antibody D1 (antibody, human IgG1, kappa, V domains shown, succinimide residue (or its ring-opened derivative) left on Cys 53 of SEQ ID NO:10 after cleavage of the linker) VH: QVQLVESGGGVVQPGRSLRLSCAASGFTFSSYTMHWVRQAPGKGLEWVTFISYDGNNKYYADSVKGRFTISRDNSKNTLYLQMNSLRAEDTAIYYCARTGWLGPFDYWGQGTLVTVSS VL: not shown
